Patent US20260166140A1, “Combinations Involving Epidermal Growth Factor Receptor Tyrosine Kinase Inhibitors For the Treatment of Cancer” (AstraZeneca AB, priority 2022, published 2026)

Experiments:
[1] = system: MEDI-PANC-08^LUC PDX model; experiment: Orthotopic luciferase expressing pancreatic PDX model efficacy; format: in vivo, mice; settings: orthotopic MEDI-PANC-08^LUC; RAA2/B09 ADC 2 and 3 mg/kg Q1W×4; Gemcitabine 75 mg/kg; isotype control 3 mg/kg Q1W×4
Procedure: The luciferase expressing PDX model (MEDI-PANC-08^LUC) was grown subcutaneously in NSG seed mice and at a volume of 800-1200 mm^3 the tumors were harvested and cut into fragments of approximately 2 mm^3. The tumor fragments were subsequently sutured to the pancreas of NSG mice (Day Zero). Luciferase signal was determined weekly using the IVIS Spectrum In vivo Imaging system. Briefly, 10 minutes prior to imaging, 200 ul of luciferin dissolved in DPBS (15 mg/ml) was injected intra-peritoneally (i.p.). The mice were anesthetized under 3% isoflurane, laid on their right side and luminescence measured. Fourteen days after tumor implant, when luminescent signal was clearly detectable, the mice were randomized into their respective groups based on the luminescence. […] Luminescence was measured weekly. Study endpoints included body weight loss, deterioration of body condition and lethargy. Data were analyzed using the Living Image software (Perkin Elmer) and plotted as Average Radiance [p/s/cm2/sr] against time.

Cynomolgus monkey EGFR [2] = experiment: ELISA species cross reactivity; format: binding
Procedure: (§1) Specificity for EGFR and cMET species paralogs and closely related family members was determined by ELISA. Briefly, antigen solutions were prepared in PBS at 1 μg/mL and 50 microliters was coated onto half area ELISA assay plates. Plates were washed and blocked with 1% BSA in PBS containing 0.005% Tween-20 (PBS-T) for one hour at room temperature. The wells were washed 4 times in PBS-T. As set out in FIG. 3, the primary antibodies used where: R374 (a non-binding IgG1 isotype control antibody), B09 (anti-cMET antibody), QD6 (anti-EGFR antibody), RAA22 (anti-EGFR antibody), QD6/B09 (bispecific EGFR/c-MET DuetMAb), RAA22/B09 (bispecific EGFR/c-MET DuetMAb), PaniX (anti-EGFR antibody), MetMab (anti-cMET antibody) and Mab11311 (anti-HER4 antibody). Wells were incubated with 50 microliters of the indicated primary antibodies diluted in PBS-T in a 1:3 dilution series, starting at 10 μg/mL and ending at 0.002 μg/mL, except for the HER4 binding mAb control, MAB1131, for which the series started at 1 μg/mL. The wells were washed 4 times in PBS-T, then 50 μl of goat anti-human Fab HRP-labeled secondary antibody, diluted 1:5000 in PBS-T, was added to each well and incubated for one hour at room temperature. […] 50 microliters of TMB stop solution was added to all wells and the absorbance was read at 450 nm on a SpectraMax M5 microplate reader. Data were analyzed in the SoftMax Pro 5 software and plotted using GraphPad Prism 7 graphing software.
(§2) To determine the species cross reactivity, ELISA assays were carried out as described above. […] There was no detectable binding of any of the antibodies to mouse cMET.

Human EGFR [3] = target: T1, Human EGFR (Homo sapiens, UniProt P00533); experiment: ELISA species cross reactivity; format: binding; settings: antibody 10 to 0.002 μg/mL
Procedure: as §1, §2

Mouse EGFR [4] = target: T2, Mouse EGFR (Mus musculus, UniProt Q01279); experiment: ELISA species cross reactivity; format: binding
T2 construct: purchased SinoBiological 51091-M08H
Procedure: as §1, §2

Cynomolgus monkey cMET [5] = experiment: SPR (BIAcore T200) antibody capture kinetics; format: binding
Sequence of Cynomolgus monkey cMET (as listed by the source): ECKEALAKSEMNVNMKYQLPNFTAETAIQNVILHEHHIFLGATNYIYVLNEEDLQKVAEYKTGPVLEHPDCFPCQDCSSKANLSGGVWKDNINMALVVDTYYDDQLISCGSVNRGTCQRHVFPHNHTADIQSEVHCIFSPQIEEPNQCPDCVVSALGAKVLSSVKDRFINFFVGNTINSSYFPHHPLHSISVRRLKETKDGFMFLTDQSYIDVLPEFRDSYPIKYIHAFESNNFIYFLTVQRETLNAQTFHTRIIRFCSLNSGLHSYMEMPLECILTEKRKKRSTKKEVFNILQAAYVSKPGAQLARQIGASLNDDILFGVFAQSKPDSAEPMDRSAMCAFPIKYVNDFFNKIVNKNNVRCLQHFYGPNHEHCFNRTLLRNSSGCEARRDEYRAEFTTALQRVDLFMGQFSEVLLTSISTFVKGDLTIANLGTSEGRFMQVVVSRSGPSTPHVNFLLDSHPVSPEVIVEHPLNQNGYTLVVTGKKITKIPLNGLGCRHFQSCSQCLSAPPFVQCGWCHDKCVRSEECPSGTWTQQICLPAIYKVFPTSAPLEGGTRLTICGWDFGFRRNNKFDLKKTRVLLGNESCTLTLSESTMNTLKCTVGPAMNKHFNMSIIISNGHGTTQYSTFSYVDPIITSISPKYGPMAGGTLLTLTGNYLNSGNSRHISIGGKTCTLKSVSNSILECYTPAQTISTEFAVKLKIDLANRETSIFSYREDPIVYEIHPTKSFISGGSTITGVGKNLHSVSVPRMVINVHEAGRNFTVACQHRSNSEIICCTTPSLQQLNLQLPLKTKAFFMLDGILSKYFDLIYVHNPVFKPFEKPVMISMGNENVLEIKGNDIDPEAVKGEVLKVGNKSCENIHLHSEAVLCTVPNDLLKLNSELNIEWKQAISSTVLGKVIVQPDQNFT
Procedure: (§3) Mouse anti-human IgG was immobilized on a CM4 sensor chip with a final surface density of ˜2000 resonance units (RUs). A reference flow cell surface was also prepared on this sensor chip using identical immobilization protocol. Test and control article antibodies were prepared at 5-20 nM in instrument buffer (HBS-EP buffer; 0.01M HEPES, pH 7.4, 0.15M NaCl, 3 mM EDTA, and 0.005% P-20), along with 3-fold serial dilutions of purified EGFR (0.27-200 nM human, 0.4-900 nM cyno, and 4-1000 nM murine) or cMET proteins (0.27 to 66 nM human and 0.27-22 nM cyno) in instrument buffer. A sequential approach was utilized for kinetic measurements. Antibodies were first injected over the capture surface, at a flow rate of 10 μL/minute. Once the binding of the captured antibody stabilized, a single concentration of the analyte was injected over both capture and reference surfaces, at a flow rate of 75 μL/minute. The resulting binding response curves yielded the association phase data. Following the injection of analyte, the flow was then switched back to instrument buffer for 15 minutes to permit the collection of dissociation phase data, followed by a 1-minute pulse of 10 mM glycine, pH 1.5, to regenerate the antibody-captured surface on the chip. Binding responses against test and control article antibodies were recorded from duplicate injections of each concentration of analyte. In addition, several buffer injections were interspersed throughout the injection series. Select buffer injections were used along with the reference cell responses to correct the raw data sets for injection artifacts and/or nonspecific binding interactions, commonly referred to as “double referencing”. Corrected binding data were globally fit to a 1:1 binding model (Biacore T200 Evaluation software 2.0, GE Healthcare, Pittsburgh, PA).

Mouse cMET = target: T3, Mouse cMET (Mus musculus, UniProt P16056); experiment: SPR (BIAcore T200) antibody capture kinetics; format: binding
T3 construct: purchased SinoBiological 50622-M08H
T3 sequence (P16056 25-929 limits assumed): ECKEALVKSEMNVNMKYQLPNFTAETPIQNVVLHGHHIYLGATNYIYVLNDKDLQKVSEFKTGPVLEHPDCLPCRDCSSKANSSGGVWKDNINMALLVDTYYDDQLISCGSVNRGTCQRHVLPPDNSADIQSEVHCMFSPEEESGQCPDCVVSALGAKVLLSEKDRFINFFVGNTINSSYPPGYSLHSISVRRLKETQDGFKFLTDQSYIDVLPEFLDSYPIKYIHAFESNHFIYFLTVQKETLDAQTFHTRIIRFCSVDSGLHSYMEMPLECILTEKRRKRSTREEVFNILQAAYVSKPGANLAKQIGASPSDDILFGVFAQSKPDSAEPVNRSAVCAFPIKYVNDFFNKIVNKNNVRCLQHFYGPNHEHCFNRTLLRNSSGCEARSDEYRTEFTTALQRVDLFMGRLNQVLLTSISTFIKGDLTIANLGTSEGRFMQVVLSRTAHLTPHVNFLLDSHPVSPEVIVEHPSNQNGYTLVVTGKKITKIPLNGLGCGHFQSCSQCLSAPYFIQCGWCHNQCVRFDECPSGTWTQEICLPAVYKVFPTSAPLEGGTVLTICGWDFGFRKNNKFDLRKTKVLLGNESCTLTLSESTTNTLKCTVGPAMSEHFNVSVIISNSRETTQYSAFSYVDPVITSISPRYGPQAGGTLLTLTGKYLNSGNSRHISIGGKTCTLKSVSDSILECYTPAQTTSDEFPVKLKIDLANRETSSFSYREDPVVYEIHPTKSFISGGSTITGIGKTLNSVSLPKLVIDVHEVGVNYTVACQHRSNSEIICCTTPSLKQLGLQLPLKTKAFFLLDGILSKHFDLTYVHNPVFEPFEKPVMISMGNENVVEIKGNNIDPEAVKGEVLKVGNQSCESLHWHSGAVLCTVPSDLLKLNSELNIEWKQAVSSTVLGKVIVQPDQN
Procedure: as §3

Cynomolgus monkey EGFR [6] = experiment: SPR (BIAcore T200) antibody capture kinetics; format: binding
Procedure: as §3

Human cMET [7] = target: T4, Human cMET (Homo sapiens, UniProt P08581); experiment: SPR (BIAcore T200) antibody capture kinetics; format: binding
T4 sequence (P08581 25-932): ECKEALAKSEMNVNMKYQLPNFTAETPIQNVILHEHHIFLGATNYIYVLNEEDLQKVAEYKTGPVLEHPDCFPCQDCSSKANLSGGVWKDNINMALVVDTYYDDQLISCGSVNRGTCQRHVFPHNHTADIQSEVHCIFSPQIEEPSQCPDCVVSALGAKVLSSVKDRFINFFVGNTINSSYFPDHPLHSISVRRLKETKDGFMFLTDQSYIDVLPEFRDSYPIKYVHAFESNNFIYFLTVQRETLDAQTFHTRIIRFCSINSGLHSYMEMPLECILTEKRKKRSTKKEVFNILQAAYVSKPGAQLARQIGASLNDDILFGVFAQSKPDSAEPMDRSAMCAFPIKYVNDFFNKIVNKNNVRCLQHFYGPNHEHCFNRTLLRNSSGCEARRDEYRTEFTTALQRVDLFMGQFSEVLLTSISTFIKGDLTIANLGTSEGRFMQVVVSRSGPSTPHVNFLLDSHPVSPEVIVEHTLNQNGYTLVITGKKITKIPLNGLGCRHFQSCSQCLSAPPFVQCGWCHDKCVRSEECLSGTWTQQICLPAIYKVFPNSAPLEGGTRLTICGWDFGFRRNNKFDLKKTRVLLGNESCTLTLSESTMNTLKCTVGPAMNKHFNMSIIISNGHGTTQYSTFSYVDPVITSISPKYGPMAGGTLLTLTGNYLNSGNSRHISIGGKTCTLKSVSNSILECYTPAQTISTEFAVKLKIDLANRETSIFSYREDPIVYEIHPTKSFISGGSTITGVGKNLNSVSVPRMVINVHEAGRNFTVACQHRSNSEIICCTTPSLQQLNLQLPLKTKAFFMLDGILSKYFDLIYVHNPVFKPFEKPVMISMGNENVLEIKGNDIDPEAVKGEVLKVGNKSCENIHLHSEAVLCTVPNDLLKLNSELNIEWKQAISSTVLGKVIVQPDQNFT
Procedure: as §3

Human EGFR [8] = target: T1, Human EGFR; experiment: SPR (BIAcore T200) antibody capture kinetics; format: binding
Procedure: as §3

Mouse EGFR [9] = target: T2, Mouse EGFR; experiment: SPR (BIAcore T200) antibody capture kinetics; format: binding
Procedure: as §3

HER2 = HER2 (Homo sapiens, UniProt P04626); experiment: ELISA family specificity; format: binding
Procedure: as §1

HER4 = HER4 (Homo sapiens, UniProt Q15303); experiment: ELISA family specificity; format: binding
Sequence of HER4 (Q15303 26-1308, species assumed): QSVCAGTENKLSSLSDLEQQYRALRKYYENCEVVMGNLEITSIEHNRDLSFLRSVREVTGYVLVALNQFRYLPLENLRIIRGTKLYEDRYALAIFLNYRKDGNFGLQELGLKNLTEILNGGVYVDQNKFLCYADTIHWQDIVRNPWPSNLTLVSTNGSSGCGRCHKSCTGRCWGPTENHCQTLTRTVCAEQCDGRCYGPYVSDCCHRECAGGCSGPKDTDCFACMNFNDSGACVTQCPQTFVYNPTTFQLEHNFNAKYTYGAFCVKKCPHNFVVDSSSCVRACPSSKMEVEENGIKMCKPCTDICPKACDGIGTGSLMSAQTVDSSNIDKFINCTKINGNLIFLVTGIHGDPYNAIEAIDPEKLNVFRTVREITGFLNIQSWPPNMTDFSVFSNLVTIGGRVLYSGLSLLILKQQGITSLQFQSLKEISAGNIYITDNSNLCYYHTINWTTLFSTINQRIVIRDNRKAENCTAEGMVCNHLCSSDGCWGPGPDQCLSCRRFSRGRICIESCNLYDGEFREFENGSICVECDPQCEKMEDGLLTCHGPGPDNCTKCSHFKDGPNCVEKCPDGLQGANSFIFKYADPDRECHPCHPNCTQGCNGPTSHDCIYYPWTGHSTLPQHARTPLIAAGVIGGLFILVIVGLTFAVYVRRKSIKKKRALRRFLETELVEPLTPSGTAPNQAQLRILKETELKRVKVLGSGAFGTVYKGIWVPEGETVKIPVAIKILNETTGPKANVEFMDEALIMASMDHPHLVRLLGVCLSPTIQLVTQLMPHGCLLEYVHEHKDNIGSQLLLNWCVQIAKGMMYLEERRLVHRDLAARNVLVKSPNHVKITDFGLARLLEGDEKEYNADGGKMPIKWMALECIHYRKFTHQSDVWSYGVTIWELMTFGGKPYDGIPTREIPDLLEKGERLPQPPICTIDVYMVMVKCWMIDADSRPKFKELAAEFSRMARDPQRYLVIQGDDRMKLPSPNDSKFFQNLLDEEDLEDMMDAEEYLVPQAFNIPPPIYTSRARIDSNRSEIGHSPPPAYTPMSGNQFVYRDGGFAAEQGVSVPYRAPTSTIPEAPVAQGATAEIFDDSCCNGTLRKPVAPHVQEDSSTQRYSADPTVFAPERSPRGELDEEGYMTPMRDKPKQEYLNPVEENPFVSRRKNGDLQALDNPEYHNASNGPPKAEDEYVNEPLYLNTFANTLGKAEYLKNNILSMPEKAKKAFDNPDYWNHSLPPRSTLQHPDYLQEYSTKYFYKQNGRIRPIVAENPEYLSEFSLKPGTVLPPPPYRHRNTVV
Procedure: as §1

HER3 = HER3 (Homo sapiens, UniProt P21860); experiment: ELISA family specificity; format: binding
Procedure: as §1

[10] = target: human cMET receptor with the HGF ligand (Homo sapiens, UniProt P08581); experiment: HGF:cMET HTRF ligand receptor inhibitory binding assay; settings: purified IgG2 antibodies
Sequence of human cMET receptor with the HGF ligand (P08581 25-932 limits assumed): as the sequence (P08581 25-932) above
Description: cMET-specific scFv antibodies were isolated from a large naïve human scFv phage display library in a series of repeated panning selection cycles on recombinant mammalian expressed biotinylated monomeric human cMET (MedImmune) essentially as described (Vaughan, 1996). ScFvs from the round 2 of the selection output were expressed in the bacterial periplasm and screened for their ability to inhibit the binding of the human cMET receptor with the HGF ligand in a HGF:cMET HTRF® (Homogeneous Time-Resolved Fluorescence) ligand receptor inhibitory binding assay. […] Unique genes were then converted to human immunoglobulin G2 (IgG2) antibodies and produced in mammalian cells essentially as described (Persic; 1997). The purified antibodies were then ranked based on their inhibitory effect in the HGF:cMET HTRF® binding assay.
To minimize potential immunogenicity, non-Vernier framework residues (Foote and Winter 1992) in the variable framework regions of 0021U3-B09 were targeted specifically and altered to match the closest human germline sequence. In the VH region, seven amino acid residues were mutated to match the reference human germline sequence IGHV1-8*01. In the VL region, three residues were mutated to match the reference human germline sequence IGKV1-5*03. All residues in VH and VL regions were successfully changed to the germline residues without loss of activity. […]

Cynomolgus monkey cMET [11] = experiment: ELISA species cross reactivity; format: binding
Procedure: as §1, §2

Human cMET [12] = target: T4, Human cMET; experiment: ELISA species cross reactivity; format: binding
Procedure: as §1, §2

Ron (CD136) = Ron (CD136) (Homo sapiens, UniProt Q04912); experiment: ELISA family specificity; format: binding
Procedure: as §1

Semaphorin 3a = experiment: ELISA family specificity; format: binding
Procedure: as §1

Nc1ccn([C@@H]2O[C@H](CO)[C@@H](O)C2(F)F)c(=O)n1 [Gemcitabine]
luminescent signal [1]: initial reduction in the luminescent signal reaching a nadir around day 21, after which the signal increased over time

B1: RAA22 IgG: low affinity anti-EGFR IgG1 antibody clone, VH SEQ ID NO: 16, VL SEQ ID NO: 20 (antibody, V domains shown)
VH: QVQLVQSGAEVKKPGSSVKVSCKASGGTFSDNDFSWVRQAPGQGLEWMGAIVAVFRTETYAQKFQDRVKITADISTRTTYMELSSLRSEDTAVYYCARRLMSAISGPGAPLLMWGQGTLVTVSS
VL: QSALTQPRSVSGSPGQSVTISCTGTSSDVGGYNYVSWYQQHPGKAPKLMIYDVSKRPSGVPDRFSGSKSGNTASLTISGLQAEDEADYYCSSYTSSDTLEIFGGGTKLTVL
ELISA binding (Cynomolgus monkey EGFR [2]): bound more weakly | ELISA binding (Human EGFR [3]): bound more weakly | ELISA binding (Mouse EGFR [4]): weak, but detectable | KD (Cynomolgus monkey cMET [5]; koff/kon): No binding detected at 200 nM | KD (Mouse cMET): No binding detected at 200 nM | Koff (Cynomolgus monkey EGFR [6]; 25° C.): 0.00601 s⁻¹ | Kon (Cynomolgus monkey EGFR [6]; 25° C.): 35400 M⁻¹ s⁻¹ | KD (Human cMET [7]; koff/kon): No binding detected at 200 nM | Koff (Human EGFR [8]; 25° C.): 0.00206 s⁻¹ | Kon (Human EGFR [8]; 25° C., 1:1 binding model): 44100 M⁻¹ s⁻¹ | Koff (Mouse EGFR [9]; 25° C.): 0.019 s⁻¹ | Kon (Mouse EGFR [9]; 25° C.): 40300 M⁻¹ s⁻¹ | ELISA binding (HER2): no binding | ELISA binding (HER4): no binding | ELISA binding (HER3): no binding

B2: B09-57 IgG: affinity optimized, germlined anti-cMET antibody derived from 0021U3-B09, VH SEQ ID NO: 38, VL SEQ ID NO: 40 (antibody, V domains shown)
VH: QVQLVQSGAEVKKPGASVKVSCKASGYTFTDYYIHWVRQATGQGLEWMGWMNPNSGNTGYAQKFQGRVTMTRDTSISTAYMELSSLRSEDTAVYYCARGQGYTHSWGQGTMVTVSS
VL: DIQMTQSPSTLSASVGDRVTITCRASEGIYHWLAWYQQKPGKAPKLLIYKASSLASGVPSRFSGSGSGTEFTLTISSLQPDDFATYYCQQYSNYPPTFGGGTKLEIK
rank by inhibitory effect in the HGF:cMET HTRF binding assay [10]: most potent antibody | ELISA binding (Cynomolgus monkey cMET [11]): comparable binding | ELISA binding (Human cMET [12]): comparable binding | Koff (Cynomolgus monkey cMET [5]; 25° C.): 0.00194 s⁻¹ | Kon (Cynomolgus monkey cMET [5]; 25° C.): 1.04e+06 M⁻¹ s⁻¹ | KD (Mouse cMET): No binding detected at 200 nM | KD (Cynomolgus monkey EGFR [6]; koff/kon): No binding detected at 200 nM | Koff (Human cMET [7]; 25° C.): 0.000882 s⁻¹ | Kon (Human cMET [7]; 25° C.): 563000 M⁻¹ s⁻¹ | KD (Human EGFR [8]; KD calculated as koff/kon): No binding detected at 200 nM | KD (Mouse EGFR [9]; koff/kon): No binding detected at 200 nM | ELISA binding (Ron (CD136)): no binding | ELISA binding (Semaphorin 3a): no binding
